Test results published in patent publication US6713443B1, “Compounds which modify serotoninergic transmission, diagnostic and therapeutic applications” (Institut Pasteur, priority 1993, dated 2004).
No end group written: not given here.

How the values were obtained:
[1] = system: 5-HT1B/D receptors; experiment: Relative activity at 1 nM, [3H]5-HT binding; conditions: 1 nM peptide or amino acid, 30 nM [3H]5-HT
Experimental: (§1) The binding experiments were performed as described above. […] Each value corresponds to the mean ± the standard deviation of three independent tests performed in quintuplicate.

[2] = system: 5-HT1B/D receptors; experiment: Relative activity at 1 nM, [125I]cyanopindolol binding; conditions: 1 nM peptide or amino acid, 0.3 nM [125I]cyanopindolol
Experimental: as §1

[3] = system: mouse; experiment: Forced swimming test (Porsolt); format: in vivo; conditions: reference antidepressants
Excerpt: The forced swimming test (Porsolt) is a simple test which cannot, under any circumstances, be assimilated with a model of “depression”.

[4] = molecular target: 5-HT1B/1D receptors; experiment: inhibition of 30 nM [3H]5-HT binding, 1 nM peptide
[5] = molecular target: T1, 5-HT1B receptor of rat brain (rat, UniProt P28564 1-386); experiment: inhibition of 0.3 nM [125I]cyanopindolol binding, 1 nM peptide
T1 construct: whole, on cells
T1 sequence (P28564 whole entry): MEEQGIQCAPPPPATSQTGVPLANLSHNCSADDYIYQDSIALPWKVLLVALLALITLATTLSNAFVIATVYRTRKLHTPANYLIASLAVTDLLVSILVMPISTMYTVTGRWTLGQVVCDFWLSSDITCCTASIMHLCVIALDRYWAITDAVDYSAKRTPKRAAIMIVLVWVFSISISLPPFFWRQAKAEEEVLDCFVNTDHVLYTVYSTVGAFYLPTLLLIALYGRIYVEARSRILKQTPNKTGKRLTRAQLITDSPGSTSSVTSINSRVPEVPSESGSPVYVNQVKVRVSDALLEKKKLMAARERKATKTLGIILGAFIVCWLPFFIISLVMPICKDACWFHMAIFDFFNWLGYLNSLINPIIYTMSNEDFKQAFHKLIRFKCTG

[6] = molecular target: 5-HT1B/1D receptors; experiment: inhibition of [3H]5-HT or [125I]cyanopindolol binding to 5-HT1B/1D type receptors
[7] = system: 5-HT1B/1D type receptors; experiment: Binding of [3H]5-HT or [125I]cyanopindolol to 5-HT1B/1D type receptors (short peptides)
[8] = system: 5-HT receptor; experiment: Ligand activity of modified LSAL peptides on the 5-HT receptor; format: binding
[9] = molecular target: 5-HT1EFC; experiment: radioligand binding, rat brain membranes, [3H]5-HT (30 nM) + 20 nM 5-CT, 1 nM peptide
[10] = molecular target: 5-HT2A receptor of rat brain (rat) (UniProt P14842); experiment: radioligand binding, rat brain membranes, [3H]DOB (5 nM), 1 nM peptide
Chain of 5-HT2A receptor of rat brain (rat) (P14842 whole entry): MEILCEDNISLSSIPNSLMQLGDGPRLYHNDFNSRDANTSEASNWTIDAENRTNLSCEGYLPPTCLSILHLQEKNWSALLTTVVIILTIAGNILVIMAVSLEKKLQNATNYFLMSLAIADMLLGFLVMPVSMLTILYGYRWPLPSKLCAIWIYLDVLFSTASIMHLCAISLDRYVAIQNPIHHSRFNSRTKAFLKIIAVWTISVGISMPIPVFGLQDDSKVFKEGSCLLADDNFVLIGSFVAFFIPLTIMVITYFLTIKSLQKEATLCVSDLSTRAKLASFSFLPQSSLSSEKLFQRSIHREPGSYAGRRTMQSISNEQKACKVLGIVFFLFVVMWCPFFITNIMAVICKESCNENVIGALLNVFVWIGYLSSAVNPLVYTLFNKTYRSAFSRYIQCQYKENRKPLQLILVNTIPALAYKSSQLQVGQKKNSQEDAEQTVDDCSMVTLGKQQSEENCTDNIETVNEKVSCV

[11] = molecular target: benzodiazepine receptors of rat brain; experiment: radioligand binding, rat brain membranes, [3H]flunitrazepam (3 nM), 1 nM peptide
[12] = molecular target: 5-HT1B/1D receptors; experiment: radioligand binding, rat brain membranes, [3H]5-HT (30 nM) + 0.1 µM 8-OH-DPAT, 1 nM peptide
[13] = molecular target: opiate receptors of rat brain; experiment: radioligand binding, rat brain membranes, [3H]naloxone (2 nM), 1 nM peptide
[14] = molecular target: β adrenergic receptors of rat brain; experiment: radioligand binding, rat brain membranes, [3H]dihydroalprenolol (3 nM) + 5-HT, 1 nM peptide
[15] = molecular target: α1 adrenergic receptors of rat brain; experiment: radioligand binding, rat brain membranes, [3H]prazosin (2 nM), 1 nM peptide
[16] = molecular target: 5-HT1B/1D receptors; experiment: inhibition of [3H]5-HT binding to 5-HT1nonA sites
[17] = molecular target: muscarinic receptors of rat brain; experiment: radioligand binding, rat brain membranes, [3H]quinuclidinyl benzilate (3 nM), 1 nM peptide
[18] = molecular target: 5-HT1B/1D receptors; experiment: cell-based or functional assay
[19] = molecular target: H1 histaminergic receptor of rat brain (rat) (UniProt P31390); experiment: radioligand binding, rat brain membranes, [3H]mepyramine (5 nM), 1 nM peptide
Chain of H1 histaminergic receptor of rat brain (rat) (P31390 whole entry): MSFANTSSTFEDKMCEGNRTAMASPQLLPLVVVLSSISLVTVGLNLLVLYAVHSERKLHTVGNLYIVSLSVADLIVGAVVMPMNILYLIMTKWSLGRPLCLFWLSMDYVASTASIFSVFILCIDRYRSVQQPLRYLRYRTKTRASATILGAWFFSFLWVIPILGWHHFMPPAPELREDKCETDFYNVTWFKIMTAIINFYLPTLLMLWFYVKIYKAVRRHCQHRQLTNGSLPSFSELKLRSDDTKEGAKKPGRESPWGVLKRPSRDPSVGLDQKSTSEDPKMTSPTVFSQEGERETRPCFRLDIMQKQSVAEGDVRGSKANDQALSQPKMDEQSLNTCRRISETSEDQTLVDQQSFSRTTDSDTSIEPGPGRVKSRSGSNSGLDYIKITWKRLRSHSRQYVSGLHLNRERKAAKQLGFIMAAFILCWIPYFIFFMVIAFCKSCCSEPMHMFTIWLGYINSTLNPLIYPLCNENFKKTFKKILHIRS

[20] = molecular target: T2, 5-HT1D receptors in guinea pigs (guinea pig, UniProt Q60484 1-376); experiment: inhibition of [3H]5-HT binding to 5-HT1D receptors, guinea pig
T2 construct: Native tissue; preparation not described
T2 sequence (Q60484 whole entry): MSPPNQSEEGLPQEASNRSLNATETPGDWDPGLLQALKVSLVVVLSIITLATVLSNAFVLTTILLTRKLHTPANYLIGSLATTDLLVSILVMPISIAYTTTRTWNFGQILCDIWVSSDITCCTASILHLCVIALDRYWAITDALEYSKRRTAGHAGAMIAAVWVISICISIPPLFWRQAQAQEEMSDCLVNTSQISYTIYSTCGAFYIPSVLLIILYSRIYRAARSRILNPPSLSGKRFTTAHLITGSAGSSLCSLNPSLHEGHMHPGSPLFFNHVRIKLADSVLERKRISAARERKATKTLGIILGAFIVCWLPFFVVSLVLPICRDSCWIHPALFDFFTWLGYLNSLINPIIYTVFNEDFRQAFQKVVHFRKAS

[21] = molecular target: 5-HT1 receptors; experiment: inhibition of [3H]5-HT binding to 5-HT1 receptors, 10^-9 M peptide
[22] = molecular target: T3, 5-HT1D receptors of human brain (human, UniProt P28221 1-377); experiment: inhibition of [3H]5-HT binding to 5-HT1D receptors, human brain
T3 construct: whole, on cells; Native tissue; preparation not described
T3 sequence (P28221 whole entry): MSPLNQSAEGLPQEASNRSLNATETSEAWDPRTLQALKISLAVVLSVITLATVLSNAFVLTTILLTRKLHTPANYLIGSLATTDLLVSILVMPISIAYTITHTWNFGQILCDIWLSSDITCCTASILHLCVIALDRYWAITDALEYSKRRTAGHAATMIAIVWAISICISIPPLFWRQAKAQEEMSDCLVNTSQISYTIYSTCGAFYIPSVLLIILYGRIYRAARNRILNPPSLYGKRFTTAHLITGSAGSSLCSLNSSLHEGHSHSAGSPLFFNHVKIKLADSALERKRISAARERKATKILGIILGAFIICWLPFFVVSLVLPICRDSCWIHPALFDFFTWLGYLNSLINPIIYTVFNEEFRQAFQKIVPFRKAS

[23] = molecular target: 5-HT1 receptors; experiment: inhibition of [3H]5-HT binding to 5-HT1 receptors
[24] = molecular target: D2 dopaminergic receptor of rat brain (rat) (UniProt P61169); experiment: radioligand binding, rat brain membranes, [3H]epiperone (2 nM) + 10 µM 5-HT, 1 nM peptide
Chain of D2 dopaminergic receptor of rat brain (rat) (P61169 whole entry): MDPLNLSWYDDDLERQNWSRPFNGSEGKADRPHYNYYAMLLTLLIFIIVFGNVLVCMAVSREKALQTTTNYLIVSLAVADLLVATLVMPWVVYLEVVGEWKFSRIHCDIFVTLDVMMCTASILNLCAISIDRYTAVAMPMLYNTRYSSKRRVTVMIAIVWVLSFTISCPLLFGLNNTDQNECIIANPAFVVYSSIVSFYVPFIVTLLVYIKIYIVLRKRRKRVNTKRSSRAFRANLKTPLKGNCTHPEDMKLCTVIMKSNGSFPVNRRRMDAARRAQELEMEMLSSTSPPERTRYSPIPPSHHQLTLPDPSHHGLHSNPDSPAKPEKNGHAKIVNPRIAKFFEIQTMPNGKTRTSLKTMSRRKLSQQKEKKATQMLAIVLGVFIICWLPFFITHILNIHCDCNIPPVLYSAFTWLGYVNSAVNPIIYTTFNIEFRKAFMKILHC

[25] = molecular target: 5-HT1A receptors of rat brain (rat) (UniProt P19327); experiment: radioligand binding, rat brain membranes, [3H]8-OH-DPAT (3 nM), 1 nM peptide
Chain of 5-HT1A receptors of rat brain (rat) (P19327 whole entry): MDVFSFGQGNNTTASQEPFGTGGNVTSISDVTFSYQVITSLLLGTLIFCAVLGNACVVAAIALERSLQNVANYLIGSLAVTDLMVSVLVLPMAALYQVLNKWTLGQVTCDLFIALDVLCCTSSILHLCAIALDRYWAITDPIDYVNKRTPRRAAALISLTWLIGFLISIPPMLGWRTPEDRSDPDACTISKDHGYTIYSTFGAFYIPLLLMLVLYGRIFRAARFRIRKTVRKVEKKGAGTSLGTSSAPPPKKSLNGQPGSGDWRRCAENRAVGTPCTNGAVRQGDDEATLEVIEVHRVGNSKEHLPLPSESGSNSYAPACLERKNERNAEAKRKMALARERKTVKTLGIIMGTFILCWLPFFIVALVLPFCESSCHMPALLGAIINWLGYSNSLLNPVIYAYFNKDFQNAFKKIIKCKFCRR

[26] = molecular target: 5-HT2A receptor of rat brain (rat) (UniProt P14842); experiment: radioligand binding, rat brain membranes, [3H]ketanserin (5 nM), 1 nM peptide
[27] = molecular target: T1, 5-HT1B receptor of rat brain; experiment: inhibition of [125I]cyanopindolol binding, rat cerebral tissue homogenates
[28] = molecular target: 5-HT3 receptor of rat brain (rat) (UniProt P35563); experiment: radioligand binding, rat brain membranes, [3H]BRL 43694 (3 nM), 1 nM peptide
Chain of 5-HT3 receptor of rat brain (rat) (P35563 24-483): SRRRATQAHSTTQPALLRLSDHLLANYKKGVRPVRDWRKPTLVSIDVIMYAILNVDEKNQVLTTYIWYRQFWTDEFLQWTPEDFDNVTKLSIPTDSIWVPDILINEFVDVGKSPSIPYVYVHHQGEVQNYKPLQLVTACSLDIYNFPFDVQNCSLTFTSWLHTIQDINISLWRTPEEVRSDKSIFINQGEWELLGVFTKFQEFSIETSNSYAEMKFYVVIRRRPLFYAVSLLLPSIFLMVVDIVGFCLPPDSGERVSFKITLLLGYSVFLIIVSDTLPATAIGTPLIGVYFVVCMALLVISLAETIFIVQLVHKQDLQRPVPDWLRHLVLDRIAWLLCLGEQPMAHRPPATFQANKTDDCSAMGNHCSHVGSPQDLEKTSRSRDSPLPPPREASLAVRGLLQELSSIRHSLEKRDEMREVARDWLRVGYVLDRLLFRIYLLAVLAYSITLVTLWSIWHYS

In the case of `C[C@H](N)C(=O)O` [ALA], the “RELATIVE POTENCY, Receptors 5-HT1B/D ([3H]5-HT)” value (“RELATIVE POTENCY … ([3H]5-HT)” for short) [1] is reported as 0 ± 4 percentage of the LSAL effect and the “RELATIVE POTENCY, Receptors 5-HT1B/D ([125I]-cyanopindolol)” value (shortened to “RELATIVE POTENCY … ([125I]-cyanopindolol)”) [2] is reported as 1.7 ± 1.68 percentage of the LSAL effect.

In the case of `CC(C)C[C@H](N)C(=O)O` [LEU], the “RELATIVE POTENCY … ([3H]5-HT)” value [1] is reported as 2 ± 9 percentage of the LSAL effect and the “RELATIVE POTENCY … ([125I]-cyanopindolol)” value [2] is reported as 0 ± 2 percentage of the LSAL effect.

`N[C@@H](CO)C(=O)O` [SER] was tested, and the “RELATIVE POTENCY … ([3H]5-HT)” value [1] was 0 ± 5 percentage of the LSAL effect and the “RELATIVE POTENCY … ([125I]-cyanopindolol)” value [2] was 0 ± 1.7 percentage of the LSAL effect.

In the case of `CN1Cc2c(N)cccc2C(c2ccccc2)C1` (stereo not shown) [nomifensine], the “activity in the forced swimming test compared with the peptide” value [3] is reported as “much more effective than the peptide”.

In the case of AC-LEU-SER-ALA-LEU, the “RELATIVE POTENCY … ([3H]5-HT)” value [1] is reported as 26.7 ± 10 percentage of the LSAL effect.

AC-LEU-SER-ALA-LEU (peptide) gave a relative potency (% of the LSAL effect) (% of the LSAL effect) [4] of 26.7.

Molecule Ala-Leu (peptide) has a relative potency (% of the LSAL effect) (% of the LSAL effect) [5] of 61.5, a relative potency (% of the LSAL effect) (% of the LSAL effect) [4] of 50 and an IC50 [6] of 1000 nM.

With “Ala-Leu-Leu-Ser (ALLS; printed: ALA-LEU-LEU-SER) [comparison peptide]” the “RELATIVE POTENCY … ([3H]5-HT)” value [1] was 10 ± 15 percentage of the LSAL effect, the “activity on binding to the 5-HT1B/1D type receptors” value [7] was “inactive” and the “RELATIVE POTENCY … ([125I]-cyanopindolol)” value [2] was 23.6 ± 10.6 percentage of the LSAL effect.

Ala-Leu-Leu-Ser (peptide) was tested, and the relative potency (% of the LSAL effect) (% of the LSAL effect) [5] was 23.6 and the relative potency (% of the LSAL effect) (% of the LSAL effect) [4] was 10.

With Ala-Leu-Ser (ALS) the “RELATIVE POTENCY … ([3H]5-HT)” value [1] was 28 ± 10 percentage of the LSAL effect, the IC50 [7] was 1000 nM and the “RELATIVE POTENCY … ([125I]-cyanopindolol)” value [2] was 33.8 ± 10 percentage of the LSAL effect.

Ala-Leu-Ser (peptide) showed a relative potency (% of the LSAL effect) (% of the LSAL effect) [5] of 33.8, a relative potency (% of the LSAL effect) (% of the LSAL effect) [4] of 28 and an IC50 [6] of 1000 nM.

D-ALA-LEU (peptide) gave a relative potency (% of the LSAL effect) (% of the LSAL effect) [4] of 0.

LEU-ALA (peptide) gave a relative potency (% of the LSAL effect) (% of the LSAL effect) [5] of 1.7 and a relative potency (% of the LSAL effect) (% of the LSAL effect) [4] of 1.

LEU-SER-ALA-LEU-NH2 (peptide) showed a relative potency (% of the LSAL effect) (% of the LSAL effect) [4] of 83.3.

With LSALGGGY the “RELATIVE POTENCY … ([3H]5-HT)” value [1] was 80.9 ± 9.5 percentage of the LSAL effect and the “ligand activity on the 5-HT receptor” value [8] was “still having a substantial activity”.

In the case of Leu-Ser (peptide), the relative potency (% of the LSAL effect) (% of the LSAL effect) [5] is reported as 53.8, the relative potency (% of the LSAL effect) (% of the LSAL effect) [4] is reported as 45.7 and the IC50 [6] is reported as 10000 nM.

In the case of Leu-Ser-Ala-Leu-NH2, the “RELATIVE POTENCY … ([3H]5-HT)” value [1] is reported as 83.3 ± 16 percentage of the LSAL effect.

With SER-LEU (peptide) the relative potency (% of the LSAL effect) (% of the LSAL effect) [4] was 4.

With β-ALA-DL-LEU (peptide) the relative potency (% of the LSAL effect) (% of the LSAL effect) [4] was 2.

For β-ALA-LEU (peptide), the relative potency (% of the LSAL effect) (% of the LSAL effect) [4] was 0.

LSAL (also called LSAL; the peptide) [Leu-Ser-Ala-Leu] gave an inhibitory effect as % of the control (% of the control) [9] of 0, an inhibitory effect as % of the control (% of the control) [10] of 2 and an inhibitory effect as % of the control (% of the control) [11] of 2. The inhibitory effect as % of the control (% of the control) [12] was 75, the inhibitory effect as % of the control (% of the control) [13] was 10 and the inhibitory effect as % of the control (% of the control) [14] was 10. It also gave an inhibitory effect as % of the control (% of the control) [15] of 5, an IC50 [16] of 0.01 nM and an inhibitory effect as % of the control (% of the control) [17] of 0. The K+-induced liberation of [3H]5-HT from rat brain hippocampus synaptosomes, apparent IC50 [18] was 0.01 nM, the inhibitory effect as % of the control (% of the control) [19] was 10 and the relative potency (% of the LSAL effect) (% of the LSAL effect) [4] was 100. For the same molecule, the IC50 [20] was 0.01 nM, the maximum inhibitory effect [21] was 30 to 50% and the IC50 [22] was 0.01 nM. The IC50 [23] was 0.01 nM, the inhibitory effect as % of the control (% of the control) [24] was 2 and the inhibitory effect as % of the control (% of the control) [25] was 0. It also gave an inhibitory effect as % of the control (% of the control) [26] of 10, an IC50 [27] of 0.01 nM and an inhibitory effect as % of the control (% of the control) [28] of 0.

In the case of LSALGGGY [Leu-Ser-Ala-Leu-Gly-Gly-Gly-Tyr], the relative potency (% of the LSAL effect) (% of the LSAL effect) [4] is reported as 80.9.
